# According to PMC5719079:
# Key:
# [1] = target: Tubulin Polymerization Promoting Protein (TPPP/p25) (human) (UniProt O94811); test: ELISA; plate coated with 5 ug/ml TPPP/p25 overnight in PBS; tubulin added at a serial dilution; bound tubulin detected by monoclonal tubulin antibody and HRP-conjugated secondary antibody; Kd from the saturation curve by a single binding site hyperbola model; apparent
# [2] = target: Human recombinant hexaHis-tagged SIRT2 containing residues 50-356 (human) (UniProt Q8IXJ6); test: ELISA; plate coated with 5 μg/ml SIRT2 overnight in PBS; TPPP/p25 or tubulin added in serial dilution, detected by TPPP/p25 or tubulin antibody; apparent Kd from a single binding site hyperbola; MZ242, MZ25 and SH1 up to 30 μM did not influence the binding of 125 nM TPPP/p25 significantly
# UniProt Q8IXJ6, sequence (Q8IXJ6 50-356): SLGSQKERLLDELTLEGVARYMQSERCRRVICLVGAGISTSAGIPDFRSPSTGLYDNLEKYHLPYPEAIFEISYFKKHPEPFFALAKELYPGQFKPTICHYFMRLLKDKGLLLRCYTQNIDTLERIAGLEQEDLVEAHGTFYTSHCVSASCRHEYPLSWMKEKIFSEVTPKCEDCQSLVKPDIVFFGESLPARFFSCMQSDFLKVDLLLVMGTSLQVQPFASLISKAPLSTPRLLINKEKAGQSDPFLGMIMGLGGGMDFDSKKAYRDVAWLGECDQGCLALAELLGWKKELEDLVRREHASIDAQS
# UniProt O94811, sequence (O94811 whole entry, the tested form may be a part): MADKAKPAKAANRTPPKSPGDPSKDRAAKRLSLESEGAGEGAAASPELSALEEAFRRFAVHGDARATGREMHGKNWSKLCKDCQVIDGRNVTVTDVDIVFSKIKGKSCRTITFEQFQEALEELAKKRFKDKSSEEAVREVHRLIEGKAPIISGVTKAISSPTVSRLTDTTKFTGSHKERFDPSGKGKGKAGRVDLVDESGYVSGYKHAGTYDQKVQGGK
substance,measurement,setting,value
tubulin (from UniProt Q6B856 1-445) (complex),Kd,[1],10 nM
Tubulin prepared from bovine brain (from UniProt Q6B856 1-445) (complex),Kd,[2],> 2000 nM
